Among the data in publication PMC2831313 are stoichiometry N, Kd and HapB binding affinity relative to the HapC/HapE heterodimer values, retold here.

For assay [1], the target named is HapC with cysteine 74 exchanged to serine (Aspergillus nidulans). Description: SDS-PAGE without reducing agent.
The target of assay [2] is HapC with cysteine 78 exchanged to serine (Aspergillus nidulans). Description: SDS-PAGE without reducing agent.
For assay [3], the target named is HapC(CCS) (Aspergillus nidulans). Description: SDS-PAGE without reducing agent.
Assay [4] concerns the target HapC(CSS) (Aspergillus nidulans). Description: SDS-PAGE without reducing agent.
For assay [5], the target named is HapC(SCS) (Aspergillus nidulans). Description: SDS-PAGE without reducing agent.
In assay [6] the target is HapC(SSC) (Aspergillus nidulans). Description: SDS-PAGE without reducing agent.
Assay [7] concerns the target N-biotinylated HapB (Aspergillus nidulans). Description: SPR. A general note: In SPR one partner is held on a chip, and binding of the other changes the refractive index at the surface.
For assay [8], the target named is oxidized HapC (treated with diamide or H2O2) (Aspergillus nidulans). Description: SDS-PAGE under non-reducing conditions.
For assay [9], the target named is oxidized HapC(CCS) (treated with diamide or H2O2) (Aspergillus nidulans). Description: SDS-PAGE under non-reducing conditions.

The term stoichiometry N denotes a count of units in the complex or per binding partner. Substance “HapC with cysteine 74 exchanged to serine (natural protein)” showed a stoichiometry N in [1] of 2.

Substance “HapC with cysteine 78 exchanged to serine (natural protein)” displayed a stoichiometry N in assay [2] of 2.

HapC(CCS) (natural protein): the stoichiometry N in [3] was determined as 2.

As to HapC(CSS) (natural protein), the stoichiometry N in assay [4] was found to be 2.

As to HapC(SCS) (natural protein), in assay [5], the stoichiometry N came to 2.

As for HapC(SSC) (natural protein), the stoichiometry N in [6] was 2.

As usually defined, the Kd is a measure of binding affinity in units of concentration. A lower Kd goes with higher affinity. In the case of “heterodimer composed of the HapC(CCS) mutant and HapE (complex)”, the Kd in assay [7] was determined as 36.8 nM.

For the substance “heterodimer of HapC with cysteine 74 exchanged to serine and HapE (complex)”, the HapB binding affinity relative to the HapC/HapE heterodimer in assay [7] was determined as 50%.

“heterodimer of HapC with cysteine 78 exchanged to serine and HapE (complex)”: the HapB binding affinity relative to the HapC/HapE heterodimer in assay [7] worked out at 50%.

Take “oxidized HapC (treated with diamide or H2O2) (natural protein)”: the stoichiometry N in [8] turned out to be 2.

“oxidized HapC(CCS) (treated with diamide or H2O2) (natural protein)” displayed a stoichiometry N in assay [9] of 2.
